How the values were obtained:
[1] = target: rHuman IGF-1 sR (IGF-1 sR), CF (R&D Systems Cat#391-GR) (human) (UniProt P08069); assay: ECL (MSD multi-spot), Fab 170 nM; blank 262
[2] = target: rHuman Notch-1/Fc Chimera, CF (R&D Systems Cat#3647-TK) (human) (UniProt P46531); assay: ECL (MSD multi-spot), Fab 170 nM; blank 262
[3] = target: rHuman CD44/Fc Chimera, CF (R&D Systems Cat#3660-CD) (human) (UniProt P16070); assay: ECL (MSD multi-spot), Fab 85.0 nM; blank 292
[4] = target: rHuman EGF R/Fc Chimera, CF (R&D Systems Cat#344-ER) (human) (UniProt P00533); assay: ECL (MSD multi-spot), Fab 85.0 nM; blank 292
[5] = target: rHuman ErbB2/Fc Chimera, CF (R&D Systems Cat#1129-ER) (human) (UniProt P04626); assay: ECL (MSD multi-spot), Fab 85.0 nM; blank 292
[6] = target: rHuman Erythropoietin R/Fc Chimera, CF (R&D Systems Cat#963-ER) (human) (UniProt P19235); assay: ECL (MSD multi-spot), Fab 85.0 nM; blank 292
[7] = target: rHuman HGF R/c-MET/Fc Chimera, CF (R&D Systems Cat#358-MT/CF) (human) (UniProt P08581); assay: ECL (MSD multi-spot), Fab 85.0 nM; blank 292
[8] = target: rHuman IGF-1 sR (IGF-1 sR), CF (R&D Systems Cat#391-GR) (human) (UniProt P08069); assay: ECL (MSD multi-spot), Fab 85.0 nM; blank 292
[9] = target: rHuman Notch-1/Fc Chimera, CF (R&D Systems Cat#3647-TK) (human) (UniProt P46531); assay: ECL (MSD multi-spot), Fab 85.0 nM; blank 292
[10] = target: rHuman P-Cadherin/Fc Chimera, CF (R&D Systems Cat#861-PC) (human) (UniProt P22223); assay: ECL (MSD multi-spot), Fab 85.0 nM; blank 292

rHuman Erythropoietin R/Fc Chimera, CF (R&D Systems Cat#963-ER) (human), sequence (P19235 25-250, change not shown): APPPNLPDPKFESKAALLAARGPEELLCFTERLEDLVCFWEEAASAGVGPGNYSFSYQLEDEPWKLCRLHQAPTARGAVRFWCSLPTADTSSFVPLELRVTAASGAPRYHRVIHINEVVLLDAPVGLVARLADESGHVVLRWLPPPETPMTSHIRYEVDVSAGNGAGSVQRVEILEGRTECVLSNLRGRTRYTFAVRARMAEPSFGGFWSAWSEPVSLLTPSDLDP

ECL signal [1]: 832 ECL signal | ECL signal [2]: 816 ECL signal | ECL signal [3]: 693 ECL signal | ECL signal [4]: 1000 ECL signal | ECL signal [5]: 844 ECL signal | ECL signal [6]: 817 ECL signal | ECL signal [7]: 998 ECL signal | ECL signal [8]: 891 ECL signal | ECL signal [9]: 780 ECL signal | ECL signal [10]: 709 ECL signal
Substance: Fab VH4-34_IGHD7-27*01_IGHJ4*01 & V4-6_IGLJ4*01

From patent publication US20120058906A1
